Test results: patent US20170107294A1, “ANTI-CD14 ANTIBODIES AND USES THEREOF” (Nordlandssykehuset HF, priority 2014, published 2017)

How the values were obtained:
porcine whole blood [1] = assay: Adverse (IgG-Fc mediated) effects in nonactivated porcine whole blood; type: cell-based; conditions: absence of inflammatory stimuli
Procedure: (§1) The whole blood model has been described in detail previously (36). Fresh human venous or porcine arterial blood was drawn directly into tubes containing the anticoagulant lepirudin (Pharmion) at a final concentration of 50 mg/ml. In 1.8-ml Cryo Tube vials (Nunc, Roskilde, Denmark), the blood was preincubated with up to 20 mg/ml anti-human CD14 (r18D11 or 18D11), or 50 mg/ml anti-porcine CD14 (rMil2 or Mil2) at 37° C. for 10 min prior to an additional 2-h incubation in the presence of 100 ng/ml ultrapure LPS from Escherichia coli 0111:B4 (InvivoGen, San Diego, Calif.) for human blood or 1 3 105/ml heat-inactivated E. coli (strain LE392, ATCC33572) for porcine blood. As negative controls, PBS with MgCl2 and CaCl2 (Sigma-Aldrich) and isotype controls were used. Adverse effects were tested using nonactivated whole blood samples. After the addition of 10 mM (human) or 20 mM (porcine) EDTA, plasma was gained by 15 min centrifugation at 3220 3 g and 4° C. Levels of TNF, IL-6, and IL-1b in human plasma were determined using Bioplex technology (Bio-Rad Laboratories AB). Levels of TNF, IL-1b, and IL-8 in porcine plasma were determined using ELISA (Quantikine, R&D Systems, Minneapolis, Minn.). Platelet count was quantified by impedance using a CELL-DYN Sapphire hematology analyzer (Abbott Laboratories, Abbott Park, Ill.).

porcine whole blood [2] = assay: rMil2 combined with C5 inhibitor OmCI: cytokine production in porcine whole blood ex vivo; type: cell-based; conditions: E. coli-incubated porcine whole blood
Procedure: as §1
Whole blood was incubated with 1 3 106 E. coli per milliliter for 2 h at 37° C. in the absence or presence of inhibitors and controls. TNF, IL-1b, and IL-8 blood was analyzed as described above.

[3] = design: species or system Norwegian domestic piglets (Sus scrofa domesticus); conditions: in vivo, iv
Procedure: In vivo application of anti-porcine CD14 Abs Norwegian domestic piglets (Sus scrofa domesticus, outbred stock) with a weight of 2.2 kg were isolated at the day of intervention. Anesthesia was induced with 5% sevoflurane in a mixture of air and oxygen until sleep. After establishment of an i.v. line, the piglets received fentanyl (15-20 mg/kg) were tracheotomized in the supine position, and a microcuffed endotracheal tube from Kimberly-Clark (Roswell, GA) with inner diameter of 4 mm was inserted. Maintenance anesthesia was provided with an infusion of fentanyl (50 mg/kg/h, and isoflurane 1-2% in oxygen-enriched air administered from a Leon plus ventilator from Heinen and Loevenstein (Bad Ems, Germany). An artery line was inserted in the right or left carotid artery for blood sampling during the experiments and for continuous measurement of mean artery pressure. The piglets were monitored with electrocardiography and pulse oximetry. Ventilator settings were adjusted to maintain 7.40 pH and oxygen saturation above 96%. Hemodynamic parameters were collected using ICUpilot software, CMA Microdialysis (Stockholm, Sweden) every 30 s. To compensate for hydration needs, the animals received a background infusion of isotonic sodium glucose solution, Salidex (Braun Medical A/S, Vestskogen, Norway) at 10 ml/kg/h. To compare the effect of the Mil2 and the rMil2 on healthy piglets, increasing amounts of a stock solution of 1 mg/ml rMil2 or Mil2 (batch 1106) were injected i.v. into two piglets at indicated times to a maximum dose of 5.36 mg/kg, and arterial blood samples were collected, in tubes containing the anticoagulants EDTA or citrate. To investigate the biological effect of rMIL2 on the inflammatory response, two piglets underwent the E. coli sepsis regimen as described previously (17). One control piglet was gives saline, and one piglet was given a bolus dose of 5 mg/kg rMil2 before infusion of the bacteria.

E. coli = conditions: whole pig blood; cited from earlier work
porcine CD14 = biological target: T1, porcine CD14 (Sus scrofa, UniProt F6PST4); assay: CD14 binding in flow cytometry, porcine whole blood (competition with FITC-conjugated Mil2); design: human monocyte and porcine granulocyte populations were selected based on the forward scatter-side scatter dot plot; endogenous in cells; host or cells: granulocytes in fresh porcine whole blood (EDTA); binding sites blocked (competition with FITC-conjugated Mil2 in binding to CD14) / direct binding to porcine granulocytes: dose or concentration left out as unconfirmed; conditions: Ab; granulocytes in porcine whole blood
T1 sequence (F6PST4 21-373): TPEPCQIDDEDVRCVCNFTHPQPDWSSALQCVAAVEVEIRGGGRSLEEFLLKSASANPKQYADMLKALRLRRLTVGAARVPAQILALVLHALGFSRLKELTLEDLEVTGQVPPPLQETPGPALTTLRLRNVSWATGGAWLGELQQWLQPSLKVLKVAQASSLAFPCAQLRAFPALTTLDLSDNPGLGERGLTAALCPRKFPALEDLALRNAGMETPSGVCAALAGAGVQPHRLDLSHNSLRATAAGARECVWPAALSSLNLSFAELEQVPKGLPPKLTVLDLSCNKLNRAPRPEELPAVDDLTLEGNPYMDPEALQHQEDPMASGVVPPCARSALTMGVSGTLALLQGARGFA
Procedure: Fresh human or porcine whole blood was drawn into tubes containing the anticoagulants lepirudin (Refludan; Pharmion, Copenhagen, Denmark) or EDTA, respectively. Blood samples were preincubated for 10 min with Ab, #20 mg/ml anti-human CD14 Abs r18D11, 18D11 F(ab)92 (batch 2068, lot 1383), or isotype controls raNIP and mIgG1 F(ab)92 (lot 1501), or […] anti-porcine CD14 Abs rMil2, Mil2 (lot 1106), or the isotype controls 4770 RECOMBINANT ANTI-CD14 Abs Downloaded from University of Oslo, Library of Medicine and Health Science on Jan. 24, 2014 for IgG2/4 and mIgG2b, eculizumab (Soliris) and mIgG2b (lot 1631), respectively. Endotoxin-free Dulbecco phosphate buffered saline, PBS (Sigma-Aldrich), was used for diluting the Abs. Subsequently, blood samples were incubated for another 15 min in the presence of detection Ab, 10 mg/ml 18D11 (batch 719, lot 3110) or 150 mg/ml FITC-conjugated Mil2 (batch 1107). Their binding was detected either by using a secondary PEconjugated anti-mouse IgG or through direct FITC fluorescence. Erythrocytes were lysed using FACS Lysing solution (BD Biosciences, Franklin Lakes, N.J.; human blood) or a solution of 0.16 M ammonium chloride, 10 mM sodium bicarbonate, 0.12 mM EDTA (Tritiplex III) and 0.04% (v/v) paraformaldehyde (porcine blood). In subsequent flow cytometry analyses, human monocyte and porcine granulocyte populations were selected based on the forward scatter-side scatter dot plot, and CD14 binding was recorded as mean or median fluorescence intensity, respectively. In contrast to humans, porcine CD14 is constitutively expressed on mature granulocytes (32, 33). Fluorescence intensities in the presence of the fluorescently labeled Abs only were set to 100%. Flow cytometry analyses on human samples were performed using an LSRII and FACSDiva software version 5.0.3; porcine samples were analyzed on a FACSCalibur using Cell Quest Pro version 5.2.1 for data acquisition (all from BD Biosciences).

B1: Mil2: mouse anti-porcine CD14 IgG2b clone Mil2 (Serotec), original murine clone (antibody, V domains shown)
VH: QVRLQQPGAELVRPGASVKLSCKASGYTFTTYWMNWVKQRPEDGLEWIGRIDPYDSETHYNQNFKDKAILTVDKSSSTAYMQLSSLTYEDSAVYYCTRKEGRQWGAYFDYWGQGTTLTVSSA
VL: DIVMTQSQKFMSTSVGDRVSVTCKASQYVGTNVAWYQQKPGQSPKALIQSASYRCSGVPDRFTGSGSGTDFTLTISNVQSEDLADYFCQQYNTYVTFGGGTKLELKR
Porcine whole blood [1]; 50 mg/ml
  spontaneous IL-8 release: strong spontaneous IL-8 release
Porcine whole blood [1]; up to 71.4 mg/ml
  platelet counts / platelet aggregation: dose-dependent drop in platelet counts
Porcine whole blood [2]
  IL-1b release (effect in words): not significantly reduced
  IL-8 release (effect in words): markedly enhanced the release
  TNF release (effect in words): significantly reduced
[3]
  maximum heart rate: ~300 beats/min
[3]; 0.32 mg/kg
  heart rate (effect in words): caused an increase in heart rate
E. coli
  E. coli survival: does not affect E. coli survival
Porcine CD14
  binding sites blocked (competition with FITC-conjugated Mil2 in binding to CD14): ~50%
